Target: H-NS (Salmonella enterica serovar Typhimurium 14028s) (UniProt A0A0F6B244)
Details: ChIP/Q-PCR, formaldehyde crosslinked, anti-HA; value given as example of copies recovered per marA copy

UniProt A0A0F6B244, sequence (A0A0F6B244 whole entry): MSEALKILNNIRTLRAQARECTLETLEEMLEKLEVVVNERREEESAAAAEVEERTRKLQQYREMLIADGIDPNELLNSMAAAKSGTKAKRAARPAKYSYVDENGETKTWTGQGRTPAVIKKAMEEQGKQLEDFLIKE

proV gave a binding signal (fold enrichment vs marA) of 53.6.

Reference: patent US8247195
